# Earlier results, collected in US20220259272A1, “PHOTOACTIVE COMPOSITIONS FOR T[…] DELIVERY” (The University of North Carolina at Chapel Hill, priority 2019, published 2022).
# Key:
# [1] = in vivo
# [2] = in vivo; remark: listed apart in the source
# [3] = 1 mg/kg, up to 100 mg
Substance,circulatory half-life [1] [min],circulatory lifetime [2] [min],"catastrophic intracerebral hemorrhage, share of patients [3] [%]"
TF: protein that promotes blood clotting in the cascade activating thrombin,< 1,,
"tPA: enzyme that activates plasminogen to generate plasmin, which dissolves the clot",,5,~10
